We go through 1 molecule from publication doi:10.1101/2020.09.22.308338 (bioRxiv, 2020).

The target in experiment [1] is T1, SARS-CoV-2 spike receptor-binding domain (RBD) (SARS-CoV-2, UniProt P0DTC2, biotin (biotinylated RBD in the BLI experiments only)). Nature of the experiment: BLI. On the technique in general: BLI is a label-free optical method that tracks binding on a fibre tip over time.
Experiment [2] concerns the target T1, SARS-CoV-2 spike receptor-binding …. Nature of the experiment: bead-based multiplex ACE2 competition assay.

B1: nanobody NM1230 (VHH)
VHH: QVQLVESGGGLVRPGGSLRLSCVGSGFTFSGYAMNWYRQAPGKALELVAGISNAGDLTHYEEPMKGRVAISRANDKNTVYLQMDDLKPEDTAVYRCHAPGVRVGTGERKDVWGQGAQVTVSS
Broadly, the Kd is the concentration at which binding is half-saturated. In general, IC50 refers to the concentration that gives 50% inhibition. Turning to B1, the Kd in experiment [1] is 8.23 nM. This molecule also showed an IC50 in experiment [2] of 2.12 nM.
